Laboratory results from patent publication US20250019439A1 (Adimab, published 2025).

Tests used:
[1] = molecular target: T1, ADI-26941 Fab; assay: BLI; tip ADI-34134 IgG, solution anti-CD3 Fab
T1 construct: anti-CD3 Fab by papain digestion of the IgG
Procedure: (§1) ForteBio affinity measurements were performed generally as previously described (Estep et al., MAbs. 2013 5(2):270-8). Briefly, ForteBio affinity measurements were performed by loading antibody IgG or Fabs on-line onto AHC sensors. Sensors were equilibrated off-line in assay buffer for 30 minutes and then monitored on-line for 60 seconds for baseline establishment. For avid binding measurement, sensors with loaded antibodies were exposed to IgG or Fab solutions for 3 minutes, afterwards they were transferred to assay buffer for 3 minutes for off-rate measurement. Kinetics data were fit using a 1:1 binding model in the data analysis software provided by ForteBio to obtain equilibrium dissociation constant (KD=koff/kₒₙ) values. In each column, tip-immobilized antibodies are listed first and solution antibodies second.
(§2) CTL-19613 is an IgG1 antibody prepared with anti-CD3 variable domains corresponding with those of clone 12C described in United States Publication Number US 2010/0183615 (e.g., see paragraphs 469-479 and FIG. 25 thereof), which also make up the CD3 binding domain of the bispecific antibody pasotuxizumab. […] In each column, tip-immobilized antibodies are listed first and solution antibodies second.

[2] = molecular target: T2, ADI-26916 Fab; assay: BLI; tip ADI-34134 IgG, solution anti-CD3 Fab
T2 construct: anti-CD3 Fab by papain digestion of the IgG
T2 sequence (VH, as listed by the source, chain 1 of 2): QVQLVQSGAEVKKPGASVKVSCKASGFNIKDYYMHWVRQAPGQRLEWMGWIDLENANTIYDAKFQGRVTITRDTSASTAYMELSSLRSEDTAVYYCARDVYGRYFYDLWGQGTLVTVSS
T2 sequence (VL, as listed by the source, chain 2 of 2): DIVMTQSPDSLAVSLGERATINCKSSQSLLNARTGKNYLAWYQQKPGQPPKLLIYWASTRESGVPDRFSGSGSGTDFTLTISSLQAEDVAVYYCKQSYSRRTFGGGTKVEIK
Procedure: as §1, §2

[3] = molecular target: T3, ADI-22523 Fab; assay: BLI; tip ADI-34134 IgG, solution anti-CD3 Fab
T3 construct: anti-CD3 Fab by papain digestion of the IgG
T3 sequence (VH, as listed by the source limits assumed, chain 1 of 2): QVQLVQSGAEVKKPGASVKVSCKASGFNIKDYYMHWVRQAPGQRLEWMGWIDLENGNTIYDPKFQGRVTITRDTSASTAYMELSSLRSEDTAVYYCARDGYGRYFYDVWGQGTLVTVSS
T3 sequence (VL, as listed by the source limits assumed, chain 2 of 2): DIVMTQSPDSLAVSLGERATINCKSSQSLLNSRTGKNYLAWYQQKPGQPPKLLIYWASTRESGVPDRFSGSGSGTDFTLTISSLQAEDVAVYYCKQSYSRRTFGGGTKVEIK
Procedure: as §1, §2

[4] = molecular target: T4, ADI-26928 Fab; assay: BLI; tip ADI-34134 IgG, solution anti-CD3 Fab
T4 construct: anti-CD3 Fab by papain digestion of the IgG
T4 sequence (VH, as listed by the source limits assumed, chain 1 of 2): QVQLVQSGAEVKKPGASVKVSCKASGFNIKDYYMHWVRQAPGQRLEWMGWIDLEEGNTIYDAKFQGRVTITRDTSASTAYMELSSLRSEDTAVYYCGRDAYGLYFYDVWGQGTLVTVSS
T4 sequence (VL, as listed by the source limits assumed, chain 2 of 2): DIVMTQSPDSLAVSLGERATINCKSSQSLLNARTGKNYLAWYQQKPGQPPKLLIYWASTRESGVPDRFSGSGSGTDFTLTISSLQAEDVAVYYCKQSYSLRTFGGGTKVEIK
Procedure: as §1, §2

[5] = molecular target: T5, ADI-26921 Fab; assay: BLI; tip ADI-34134 IgG, solution anti-CD3 Fab
T5 construct: anti-CD3 Fab by papain digestion of the IgG
T5 sequence (VH, as listed by the source limits assumed, chain 1 of 2): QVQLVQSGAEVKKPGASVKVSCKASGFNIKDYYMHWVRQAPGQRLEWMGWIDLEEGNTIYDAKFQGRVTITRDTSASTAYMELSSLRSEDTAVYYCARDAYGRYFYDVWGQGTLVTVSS
Procedure: as §1, §2

[6] = molecular target: T6, ADI-26913 Fab; assay: BLI; tip ADI-34134 IgG, solution anti-CD3 Fab
T6 construct: anti-CD3 Fab by papain digestion of the IgG
T6 sequence (VH, as listed by the source limits assumed, chain 1 of 2): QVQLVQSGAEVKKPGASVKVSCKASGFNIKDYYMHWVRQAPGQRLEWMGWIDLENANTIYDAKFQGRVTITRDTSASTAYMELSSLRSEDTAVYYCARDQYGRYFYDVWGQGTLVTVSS
Procedure: as §1, §2

[7] = molecular target: T7, ADI-26920 Fab; assay: BLI; tip ADI-34134 IgG, solution anti-CD3 Fab
T7 construct: anti-CD3 Fab by papain digestion of the IgG
T7 sequence (VH, as listed by the source limits assumed, chain 1 of 2): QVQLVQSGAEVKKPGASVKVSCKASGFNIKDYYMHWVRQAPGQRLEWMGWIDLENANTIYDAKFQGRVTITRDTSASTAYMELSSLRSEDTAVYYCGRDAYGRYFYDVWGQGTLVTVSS
Procedure: as §1, §2

[8] = molecular target: T8, CTL-19613 Fab; assay: BLI; tip ADI-34134 IgG, solution anti-CD3 Fab
T8 construct: anti-CD3 Fab by papain digestion of the IgG1
Procedure: as §1, §2

[9] = molecular target: T9, ADI-26927 Fab; assay: BLI; tip ADI-34134 IgG, solution anti-CD3 Fab
T9 construct: anti-CD3 Fab by papain digestion of the IgG
T9 sequence (VH, as listed by the source limits assumed, chain 1 of 2): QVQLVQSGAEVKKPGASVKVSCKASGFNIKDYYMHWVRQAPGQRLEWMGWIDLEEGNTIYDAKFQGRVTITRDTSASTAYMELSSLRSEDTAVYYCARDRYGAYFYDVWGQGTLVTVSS
Procedure: as §1, §2

[10] = molecular target: T10, ADI-26906 Fab; assay: BLI; tip ADI-34134 IgG, solution anti-CD3 Fab
T10 construct: anti-CD3 Fab by papain digestion of the IgG
T10 sequence (VH, as listed by the source limits assumed, chain 1 of 2): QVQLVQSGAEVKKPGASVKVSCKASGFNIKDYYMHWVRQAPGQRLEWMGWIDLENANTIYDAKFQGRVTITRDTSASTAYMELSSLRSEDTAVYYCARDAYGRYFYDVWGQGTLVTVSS
Procedure: as §1, §2

[11] = molecular target: T11, ADI-26927 anti-CD3 bsIgG; assay: BLI; tip anti-CD3 bsIgG, solution ADI-34134 IgG
T11 construct: anti-HER2 IgG with one Fab arm replaced by the anti-CD3 scFv (printed 'Vx-VH', read as VL-VH); S354C and Y349C mutations; also called anti-CD3 bsIgG (ADI-26927 scFv); not shown: scFv linker; anti-HER2 Fab arm (heavy and light chain); hinge and Fc with S354C/Y349C
Procedure: as §1
(§3) Additional analysis was conducted using bispecific antibody formats incorporating anti-CD3 antibody variable domains. Bispecific antibodies were prepared using standard IgG formats (bsIgG) with replacement of Fab arms with anti-CD3 scFvs in Vx-VH orientation and with S354C and Y349C mutations for disulfide stabilization. Antibodies used for Fab arm replacement were anti-HER2 IgG antibodies, with one Fab arm from each replaced by a scFv corresponding to a different anti-CD3 antibody. […] In each column, tip-immobilized antibodies are listed first and solution antibodies second. Anti-CD3 antibodies associated with incorporated scFvs are listed by antibody number.

[12] = molecular target: T12, ADI-22523 anti-CD3 bsIgG (In the assayed molecule VL and VH are joined as one scFv (printed 'Vx-VH' orientation) by an undisclosed linker and fused to an Fc, paired with an anti-HER2 half-IgG. They are given here as two …); assay: BLI; tip anti-CD3 bsIgG, solution ADI-34134 IgG
T12 construct: anti-HER2 IgG with one Fab arm replaced by the anti-CD3 scFv (printed 'Vx-VH', read as VL-VH); S354C and Y349C mutations; not shown: scFv linker between VL and VH; anti-HER2 heavy and light chains; hinge and Fc with S354C/Y349C
Procedure: as §1, §3

[13] = molecular target: T13, ADI-67445; assay: SPR Carterra, yeast anti-ID
T13 construct: anti-CD3 antibody made in CHO cells, captured by anti-human Fc
T13 sequence (VH, as listed by the source limits assumed, chain 1 of 2): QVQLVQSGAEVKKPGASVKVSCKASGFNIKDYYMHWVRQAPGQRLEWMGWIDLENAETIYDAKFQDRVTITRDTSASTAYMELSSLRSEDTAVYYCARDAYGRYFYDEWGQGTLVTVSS
Procedure, shortened: (§4)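 Anti-human Fc capture chip (amine coupled); anti-CD3 IgG 100 nM, 5 min capture; 25° C, HBSTE. Non-regenerative kinetic cycles, anti-ID dissociation 300s; glycine pH 1.7 regeneration. Double-reference subtraction, 1:1 fit.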

[14] = molecular target: T14, CTL-62228; assay: SPR Carterra, yeast anti-ID
T14 construct: also called glofitamab
Procedure, shortened: as §4

[15] = molecular target: T15, CTL-62227; assay: SPR Carterra, yeast anti-ID
T15 construct: also called odronextamab
T15 sequence (VH, as listed by the source, chain 1 of 2): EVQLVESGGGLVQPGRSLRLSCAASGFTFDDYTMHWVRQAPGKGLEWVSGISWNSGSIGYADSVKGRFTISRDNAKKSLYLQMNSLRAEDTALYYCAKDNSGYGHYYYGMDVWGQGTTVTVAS
T15 sequence (VL, as listed by the source, chain 2 of 2): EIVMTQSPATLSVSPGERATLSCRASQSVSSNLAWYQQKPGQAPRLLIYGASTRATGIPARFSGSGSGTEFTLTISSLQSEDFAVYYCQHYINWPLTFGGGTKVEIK
Procedure, shortened: as §4

[16] = molecular target: T16, ADI-70327; assay: SPR Carterra, yeast anti-ID
T16 construct: anti-CD3 antibody made in CHO cells, captured by anti-human Fc
T16 sequence (VH, as listed by the source limits assumed, chain 1 of 2): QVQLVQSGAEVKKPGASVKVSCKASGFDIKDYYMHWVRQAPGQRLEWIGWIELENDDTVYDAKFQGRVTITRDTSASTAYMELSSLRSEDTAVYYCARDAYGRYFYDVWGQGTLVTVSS
T16 sequence (VL, as listed by the source limits assumed, chain 2 of 2): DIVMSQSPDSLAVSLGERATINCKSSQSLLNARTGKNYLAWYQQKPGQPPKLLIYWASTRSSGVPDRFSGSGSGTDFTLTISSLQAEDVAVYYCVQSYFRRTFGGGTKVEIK
Procedure, shortened: as §4

[17] = molecular target: T17, CTL-62240; assay: SPR Carterra, yeast anti-ID
T17 construct: also called ONO-4685
T17 sequence (VH, as listed by the source, chain 1 of 2): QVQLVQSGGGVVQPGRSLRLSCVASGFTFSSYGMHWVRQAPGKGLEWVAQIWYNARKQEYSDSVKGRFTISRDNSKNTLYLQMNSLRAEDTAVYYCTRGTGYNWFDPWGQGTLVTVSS
T17 sequence (VL, as listed by the source, chain 2 of 2): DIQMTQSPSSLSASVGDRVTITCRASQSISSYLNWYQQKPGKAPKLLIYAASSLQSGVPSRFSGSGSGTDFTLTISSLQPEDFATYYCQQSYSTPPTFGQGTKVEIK
Procedure, shortened: as §4

[18] = molecular target: T18, CTL-62223; assay: SPR Carterra, yeast anti-ID
T18 construct: also called mosunetuzumab
T18 sequence (VH, as listed by the source, chain 1 of 2): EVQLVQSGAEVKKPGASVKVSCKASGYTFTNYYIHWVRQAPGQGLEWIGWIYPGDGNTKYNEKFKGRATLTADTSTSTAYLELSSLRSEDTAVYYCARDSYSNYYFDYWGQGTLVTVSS
T18 sequence (VL, as listed by the source, chain 2 of 2): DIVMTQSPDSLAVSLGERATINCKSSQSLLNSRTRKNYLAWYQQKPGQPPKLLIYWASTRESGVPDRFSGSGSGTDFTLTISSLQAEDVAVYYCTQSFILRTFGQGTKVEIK
Procedure, shortened: as §4

T1 sequence (VH, as listed by the source limits assumed, chain 1 of 2): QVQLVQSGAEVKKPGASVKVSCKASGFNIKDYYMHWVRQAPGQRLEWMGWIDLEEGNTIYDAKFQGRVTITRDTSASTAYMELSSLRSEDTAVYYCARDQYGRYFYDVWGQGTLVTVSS
T1 sequence (VL, as listed by the source limits assumed, chain 2 of 2): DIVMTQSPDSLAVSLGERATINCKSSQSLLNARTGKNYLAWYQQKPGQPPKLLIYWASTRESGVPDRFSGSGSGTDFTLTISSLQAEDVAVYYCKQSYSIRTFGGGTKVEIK

B1: ADI-34134 IgG (antibody, V domains shown)
VH: QVQLVQSGAEVKKPGSSVKVSCKASGGTFSSYAISWVRQAPGQGLEWMGGIIPIFGTANYAQKFQGRVTITADESTSTAYMELSSLRSEDTAVYYCARGAPNYYGSGGYDDGWFDPWGQGTLVTVSS
VL: EIVLTQSPGTLSLSPGERATLSCRASQSVSSDYLAWYQQKPGQAPRLLIYGASSRATGIPDRFSGSGSGTDFTLTISRLEPEDFAVYYCQQFGRVPTFGGGTKVEIK
Kd [1]: 112 nM
Kd [2]: 110 nM
Kd [3]: 4.46 nM
Kd [4]: 182 nM
Kd [5]: 92.7 nM
Kd [6]: 86.5 nM
Kd [7]: 29.8 nM
binding result [8]: no binding
Kd [9]: 25.6 nM
Kd [10]: 36 nM
Kd [11]: 1.02 nM
Kd [12]: 0.47 nM

B2: ADI-34145 IgG (antibody, V domains shown)
VH: EVQLLESGGGLVQPGGSLRLSCAASGFTFSSYAMSWVRQAPGKGLEWVSTISGSGGSTYYADSVKGRFTISRDNSKNTLYLQMNSLRAEDTAVYYCARLGGRRGSGSSYYYYYGMDVWGQGTTVTVSS
VL: not shown
notes: anti-ID IgG
binding result [13]: no binding (tested: up to 200 nM)
binding result [14]: no binding (tested: up to 200 nM)
binding result [15]: no binding (tested: up to 200 nM)
binding result [16]: no binding (tested: up to 200 nM)
binding result [17]: no binding (tested: up to 200 nM)
binding result [18]: no binding (tested: up to 200 nM)
